# Source: publication PMC4330383
# What was measured:
# [1] = target: histones H3-H4 (full-length, recombinant Drosophila melanogaster) (Drosophila melanogaster) (UniProt P02299); assay: SEC-MALS; Superdex 200 10/300 GL Increase, 50 mM Tris pH 8.0, 1.5 M NaCl; for H3-H4 alone: tetramer of two H3-H4 dimers
# [2] = target: histones H3-H4 (full-length, recombinant Drosophila melanogaster) (Drosophila melanogaster) (UniProt P02299); assay: SEC-MALS; Superdex 200 10/300 GL Increase, 50 mM Tris pH 8.0, 0.5 M NaCl, 20°C
# Chain of ASF1a (1–156) (Q9Y294 1-156): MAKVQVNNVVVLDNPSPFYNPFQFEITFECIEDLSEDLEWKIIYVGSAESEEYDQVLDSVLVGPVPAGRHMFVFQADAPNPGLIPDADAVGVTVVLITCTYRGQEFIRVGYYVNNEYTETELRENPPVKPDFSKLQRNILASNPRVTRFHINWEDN
Substance,stoichiometry N (ASF1 per H3-H4 dimer (ratio H3:H4:ASF1)) [1],stoichiometry N (ASF1 per H3-H4 dimer (ratio H3:H4:ASF1)) [2],stoichiometry N ([1]; scale: H3-H4 dimers in the oligomer)
ASF1a (1–156) (from UniProt Q9Y294 1-156) (domain or fragment; other documents disagree on this pair),1,1,
"histones H3-H4 (full-length, recombinant Drosophila melanogaster) (from UniProt P02299 1-136; P84040 1-103) (complex)",,,2
